Among the data in patent publication CN114621348A (SHENZHEN SHENHI BIOMEDICINE CO LTD, dated 2022) are EC50 values, retold here.

The target in test [1] is T1, 磷脂酰肌醇蛋白聚糖3(GPC3) (UniProt P51654 25-554).
T1 construct: whole, on cells; also called MXR7; OCI-5
The test is described as follows: flow cytometry on HuH-7 cells, full-length IgG1. For orientation: In flow cytometry, cells or beads pass a laser one at a time.

The target of test [2] is T1, 磷脂酰肌醇蛋白聚糖3(GPC3). In words: flow cytometry on HepG2 cells, full-length IgG1.
The target in test [3] is T1, 磷脂酰肌醇蛋白聚糖3(GPC3). In words: flow cytometry on GPC3-CHO-S cells, full-length IgG1.
In test [4] the target is T1, 磷脂酰肌醇蛋白聚糖3(GPC3). In words: flow cytometry on HuH-7 cells.
In test [5] the target is T1, 磷脂酰肌醇蛋白聚糖3(GPC3). The test is described as follows: flow cytometry on GPC3-CHO-S cells.
In test [6] the target is T1, 磷脂酰肌醇蛋白聚糖3(GPC3). In words: flow cytometry on HepG2 cells.

T1 sequence (P51654 25-554 limits assumed, form in doubt): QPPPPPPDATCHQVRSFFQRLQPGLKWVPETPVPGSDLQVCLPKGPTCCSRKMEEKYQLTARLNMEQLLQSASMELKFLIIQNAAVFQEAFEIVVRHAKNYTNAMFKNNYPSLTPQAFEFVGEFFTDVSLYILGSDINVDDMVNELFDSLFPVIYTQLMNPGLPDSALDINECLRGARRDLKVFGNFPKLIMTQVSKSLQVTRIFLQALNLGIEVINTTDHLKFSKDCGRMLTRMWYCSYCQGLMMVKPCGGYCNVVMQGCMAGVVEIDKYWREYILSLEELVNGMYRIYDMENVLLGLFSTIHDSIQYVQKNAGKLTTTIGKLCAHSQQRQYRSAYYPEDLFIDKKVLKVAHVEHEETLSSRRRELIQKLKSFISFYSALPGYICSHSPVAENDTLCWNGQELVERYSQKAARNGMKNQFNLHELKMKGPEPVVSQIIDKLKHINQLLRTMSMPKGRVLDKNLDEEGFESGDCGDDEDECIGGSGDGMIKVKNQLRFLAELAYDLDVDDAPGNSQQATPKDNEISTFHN

B1: D38 (antibody, V domains shown)
VH: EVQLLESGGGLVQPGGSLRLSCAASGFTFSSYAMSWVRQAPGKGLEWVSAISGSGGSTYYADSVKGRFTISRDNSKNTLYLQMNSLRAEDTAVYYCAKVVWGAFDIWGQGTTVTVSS
VL: NIQMTQSPSSLSASVGDRVTISCQASQDISNYVNWYQQRPGKAPKLLMYDASNLEVGVPVRFRGSGSGTEFTFTILSLQPEDLGTYYCQQYDSLPFTFGQGTKLDLK
notes: also called 克隆D38
What is called EC50 is the midpoint of the concentration-response curve. Higher therefore signals a need for much substance. Turning to B1, the concentration giving a half-maximal response (EC50) was 45.1 µg/mL in the test with 磷脂酰肌醇蛋白聚糖3(GPC3) [1], 83.9 µg/mL with 磷脂酰肌醇蛋白聚糖3(GPC3) [2] and 0.0394 µg/mL with 磷脂酰肌醇蛋白聚糖3(GPC3) [3].

B2: D48 (antibody, V domains shown)
VH: EVQLLESGGGLVQPGESLRLSCEASGLTFSSYPMAWVRQAPGKGLEWVSVIYSDGSKKFYADSVKGRFTISRHNSKNTLYLQMNSLRAEDTAVYYCARGISSSGFDYWGQGTLVTVSS
VL: DIQLTQSPSSLSASVGDRVTITCRASQGISSWLAWYQQKPGKAPKLLIYAASSLQSGVPSRFSGSGSGTDFTLTISSLQPEDFATYYCQQGNSFPLTFGGGTKVEIK
notes: also called 克隆D48
As to B2, the EC50 with 磷脂酰肌醇蛋白聚糖3(GPC3) [2] came to 11.6 µg/mL; with 磷脂酰肌醇蛋白聚糖3(GPC3) [3] it was 0.0968 µg/mL.

B3: Codrituzumab (antibody, human IgG1, kappa, V domains shown)
VH: QVQLVQSGAEVKKPGASVKVSCKASGYTFTDYEMHWVRQAPGQGLEWMGALDPKTGDTAYSQKFKGRVTLTADKSTSTAYMELSSLTSEDTAVYYCTRFYSYTYWGQGTLVTVSS
VL: DVVMTQSPLSLPVTPGEPASISCRSSQSLVHSNRNTYLHWYLQKPGQSPQLLIYKVSNRFSGVPDRFSGSGSGTDFTLKISRVEAEDVGVYYCSQNTHVPPTFGQGTKLEIKR
notes: also called GC33; GPC3阳性抗体
Take B3: the results for the EC50 with 磷脂酰肌醇蛋白聚糖3(GPC3) [4], with 磷脂酰肌醇蛋白聚糖3(GPC3) [5] and in the test with 磷脂酰肌醇蛋白聚糖3(GPC3) [6] were 0.191 µg/mL, 0.184 µg/mL and 0.172 µg/mL, respectively.

B4: D37 (antibody, V domains shown)
VH: QVQLLESGGGLVQPGGSLRLSCAASGFTFSSYAMNWVRQAPGKGLEWVSTISGSGGSTYYADSVKGRFTISRDNSKNTLYLQMNSLRAEDTAVYYCARGSWGAFDIWGQGTPVTVSS
VL: DIQLTQSPSSLSASVGDRVTITCQASQGISNYVNWYQQKPGKAPELLISDAYNLEAGVPSTFSGSGSGTQFTFTISSLQPEHIGTYYCQQFETIPWTFGQGTKIEVK
notes: also called 克隆D37
On to B4, for which the figures for the concentration giving a half-maximal response (EC50) with 磷脂酰肌醇蛋白聚糖3(GPC3) [1] and with 磷脂酰肌醇蛋白聚糖3(GPC3) [3] were 6.21 µg/mL and 0.0314 µg/mL, respectively.

B5: D5 (antibody, V domains shown)
VH: EVQLLESGGGVVQPGRSLRLSCAASGFTFSSYAMHWVRQAPGKGLEWVAVISYDGSNKYYADSVKGRFTISRDNSKNTLYLQMNSLRAEDTAVYYCARQYSSSSPFDYWGQGTLVTVSS
VL: NIQLTQSPSTLSASVGDRITITCRASQSISRWLAWYQQKPGKAPKVLIYKASNLENGVPSRFSGSGSGTEFTLTISSLQPDDSATYYCQQHSYSSPWRFGQGTKVEIK
notes: also called 克隆D5
For the molecule B5, the EC50 amounted to 9.62 µg/mL with 磷脂酰肌醇蛋白聚糖3(GPC3) [1] and 0.0664 µg/mL in the test with 磷脂酰肌醇蛋白聚糖3(GPC3) [3].

B6: D42 (antibody, V domains shown)
VH: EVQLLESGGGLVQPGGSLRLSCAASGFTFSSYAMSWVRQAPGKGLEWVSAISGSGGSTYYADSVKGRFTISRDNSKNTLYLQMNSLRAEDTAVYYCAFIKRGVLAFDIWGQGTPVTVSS
VL: DIQLTQSPSSVSASVGDRVVITCRASQSLGNWLAWYQQKPGKAPNLLIYGASTLQTGVPSRFSGFHSGGEYTLSISNLQPEDAATYYCQQASSIPLTFGGGTKVEIK
notes: also called 克隆D42
Consider B6, for which the midpoint of the response with 磷脂酰肌醇蛋白聚糖3(GPC3) [2], the EC50, lay at 18.3 µg/mL.

B7: D35 (antibody, V domains shown)
VH: EVQLVESGGGVVKPGGSLRLSCAASGFIFSDSYMTWLRQAPGKGLEWVSYISGSASDIKYADSVKGRFTISRDNAKNSLYLQMNSLRVEDTAVYYCARDPRLAGIWGQGTTVTVSS
VL: DIQLTQSPSTLSASIGDRVTITCRASQRVSSRLAWYQQKPGKAPKLLIYKTSNLEAEVPSRFSGSGSGTEFTLTISSLQPDDFATYYCQQYHSYPLTFGGGTKVEIK
notes: also called 克隆D35
In the case of B7, the concentration giving a half-maximal response (EC50) with 磷脂酰肌醇蛋白聚糖3(GPC3) [2] was 7.94 µg/mL; with 磷脂酰肌醇蛋白聚糖3(GPC3) [3], 0.0316 µg/mL.

B8: D36 (antibody, V domains shown)
VH: EVQLLESGGGLVKPGGSLRLSCAASGFTFSSYSMNWVRQAPGKGLEWVSSISSSSSYIYYADSVKGRFTISRDNAKNSLYLQMNSLRAEDTAVYYCARETTDGGMDVWGQGTLVTVSS
VL: DIQMTQSPSSVSASVGDRVTITCRASQDIGKYLNWYQQKAGKAPNLLIYDASNLKTGVSSRFSGSGSGTEFTFTISSLQPEDIATYFCQQFDDFPYTFGPGTKVGIR
notes: also called 克隆D36
Take B8: the EC50 in the test with 磷脂酰肌醇蛋白聚糖3(GPC3) [3] is 0.0394 µg/mL.

B9: D47 (antibody, V domains shown)
VH: EVQLLESGGGLVKPGGSLRLSCAASGFTFSSYSMNWVRQAPGKGLEWVSSISSSSSYIYYADSVKGRFTISRDNAKNSLYLQMNSLRAEDTAVYYCARGAARFDYWGQGTMVTVSS
VL: NIQLTQSPSSVSASVGDRVTITCRASQGIWRWLAWYQHKPGKAPKLLISAASNLQSGVPSRFSGSGSGTDFTLTISSLQPEDVATYYCQQANSFPSLTFGGGTKVDIR
notes: also called 克隆D47
In the test with 磷脂酰肌醇蛋白聚糖3(GPC3) [1], B9 gave a concentration giving a half-maximal response (EC50) of 0.0228 µg/mL.
